Experimental findings from paper doi:10.64898/2025.12.01.691523 are described below.

In this assay the target is Anopheles culicifacies ferritin heavy chain homolog (AcFtnHCH), recombinant, refolded (Anopheles culicifacies). The assay is described as follows: native gel or EMSA. On the technique in general: Mobility shift assays separate free from complexed probe on a gel.

For “Anopheles culicifacies ferritin heavy chain homolog (AcFtnHCH), recombinant, refolded (natural protein)”, the stoichiometry N (as a rule, the number of molecules, sites or subunits per partner or assembly) was 24.
